# Experimental data as given in article PMC2936295, “Integrative inference of gene-regulatory networks in Escherichia coli using information theoretic concepts and sequence analysis”.
# How the values were obtained:
# [1] = biological target: T1, PdhR-His (Escherichia coli K-12 LJ110, UniProt P0ACL9 1-254); experiment: EMSA; no pyruvate; 9-37 pmol PdhR; EMSA, binding buffer and conditions as in ref 17 (not given) plus 0.1 mg/ml herring sperm DNA; 0.1 pmol probe (0.025 pmol for lipA); 6% polyacrylamide gel; pH; details: protein: recombinant; tags: C-terminal Penta-His; chain copies: 2; label: 5' DY682 (strand 1); 5' DY782 (strand 2); blunt
# [2] = biological target: T1, PdhR-His; experiment: EMSA; no pyruvate; 18-46 pmol PdhR; EMSA, binding buffer and conditions as in ref 17 (not given) plus 0.1 mg/ml herring sperm DNA; 0.1 pmol probe (0.025 pmol for lipA); 6% polyacrylamide gel; pH; details: protein: recombinant; tags: C-terminal Penta-His; chain copies: 2; label: 5' DY782 (strand 1); 5' DY682 (strand 2); as printed, strand 2 has 3 extra nt (CAG opposite a gap in strand 1), possible misprint; blunt ends
# T1 sequence (P0ACL9 whole entry): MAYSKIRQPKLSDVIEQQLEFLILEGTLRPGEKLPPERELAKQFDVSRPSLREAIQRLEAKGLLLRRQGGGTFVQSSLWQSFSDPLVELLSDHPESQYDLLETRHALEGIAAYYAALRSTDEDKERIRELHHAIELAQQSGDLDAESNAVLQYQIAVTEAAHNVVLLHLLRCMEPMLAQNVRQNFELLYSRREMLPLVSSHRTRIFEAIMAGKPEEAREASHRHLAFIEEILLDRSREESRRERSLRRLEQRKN
Binder,binding result [1],binding result [2]
PdhR-binding site of pdhR-aceEF-lpd operon (dsDNA) DNA 1: GCCGAAGTCAATTGGTCTTACCAATTTCATGTCTGTG DNA 2: CACAGACATGAAATTGGTAAGACCAATTGACTTCGGC,binds,–
Mlc-binding site (ptsG) (dsDNA) DNA 1: TTGGCAAATTATTTTACTCTGTGTAATAAATAAAGGGCG DNA 2: CGCCCTTTATTTATTACACAGAGTAAAATAATTCAGTGCCAA,–,no binding
